Read-outs that look alike come from different tables or passages of the source.

Data set [1] addresses Human serum albumin (HSA) (Homo sapiens) (UniProt P02768). The conditions noted are these: Nap-dU at all n positions, plate ELISA, buffer SB18, 37 C.
Data set [2] relates to K-RAS G12D G12D, P01116-2. The conditions noted are these: Nap-dU at all n positions; plate ELISA, buffer SB18, 37 C, R2 97.1. (An ELISA detects its analyte on a solid surface through an enzyme-linked reagent.)

Broadly, the Kd is the concentration at which binding is half-saturated. Lower therefore signals a tighter complex. As for “GCATAAGTCCGGATGGCAGCTTTATGCCGACC [AD007]”, the Kd in data set [1] (R2 97.0) was 536 nM.

Consider GCATAAGTCCGGATGGCAGCTTTATGC [AD008], for which the Kd in data set [2] came to 287 nM. That is a sub-micromolar value.

In data set [1] (R2 75.9), “GACTAGCATAAGTCCGGATGGCAGCTTTATGCCG [AD006]” had a Kd of 939 nM.
